Laboratory results published in IntAct's records for PubMed 20485439.

B1: Eukaryotic translation initiation factor 5 (Saccharomyces cerevisiae), P38431 (parent)
chain: MSINICRDNHDPFYRYKMPPIQAKVEGRGNGIKTAVLNVADISHALNRPAPYIVKYFGFELGAQTSISVDKDRYLVNGVHEPAKLQDVLDGFINKFVLCGSCKNPETEIIITKDNDLVRDCKACGKRTPMDLRHKLSSFILKNPPDSVSGSKKKKKAATASANVRGGGLSISDIAQGKSQNAPSDGTGSSTPQHHDEDEDELSRQIKAAASTLEDIEVKDDEWAVDMSEEAIRARAKELEVNSELTQLDEYGEWILEQAGEDKENLPSDVELYKKAAELDVLNDPKIGCVLAQCLFDEDIVNEIAEHNAFFTKILVTPEYEKNFMGGIERFLGLEHKDLIPLLPKILVQLYNNDIISEEEIMRFGTKSSKKFVPKEVSKKVRRAAKPFITWLETAESDDDEEDDE
B2: Eukaryotic translation initiation factor 5 (Saccharomyces cerevisiae), P38431 (parent)
chain: B1 chain
partner: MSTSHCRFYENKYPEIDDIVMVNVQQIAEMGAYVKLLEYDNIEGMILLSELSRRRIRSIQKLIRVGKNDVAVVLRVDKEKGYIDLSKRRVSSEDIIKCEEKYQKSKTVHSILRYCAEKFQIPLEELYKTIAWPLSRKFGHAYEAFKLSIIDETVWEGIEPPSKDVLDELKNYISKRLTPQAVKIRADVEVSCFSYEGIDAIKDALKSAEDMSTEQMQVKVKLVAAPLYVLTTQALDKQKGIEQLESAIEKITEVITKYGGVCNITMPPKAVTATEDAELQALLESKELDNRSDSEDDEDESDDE

Variants of: B1
Settings: with if2g_yeast GCD11, P32481
if2g_yeast GCD11, P32481, sequence (P32481 whole entry): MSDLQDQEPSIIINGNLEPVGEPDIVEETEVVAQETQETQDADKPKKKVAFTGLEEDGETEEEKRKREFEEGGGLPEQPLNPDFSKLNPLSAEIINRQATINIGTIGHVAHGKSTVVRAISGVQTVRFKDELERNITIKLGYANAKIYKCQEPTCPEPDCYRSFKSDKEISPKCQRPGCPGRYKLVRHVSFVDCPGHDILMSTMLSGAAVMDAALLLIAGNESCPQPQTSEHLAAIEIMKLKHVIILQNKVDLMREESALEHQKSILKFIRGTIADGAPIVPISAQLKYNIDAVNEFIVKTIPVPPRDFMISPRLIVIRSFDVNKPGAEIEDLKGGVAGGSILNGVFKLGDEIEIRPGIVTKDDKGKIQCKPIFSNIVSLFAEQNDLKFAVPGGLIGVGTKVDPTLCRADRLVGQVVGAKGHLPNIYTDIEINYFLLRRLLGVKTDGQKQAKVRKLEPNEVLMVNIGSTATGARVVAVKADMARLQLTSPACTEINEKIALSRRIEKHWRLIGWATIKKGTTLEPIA

| Variant | effect of a mutation on the interaction |
| --- | --- |
| W391F | decreasing interaction |

Variants of: B2
Settings: with if2a_yeast SUI2, P20459

| Variant | effect of a mutation on the interaction |
| --- | --- |
| W391F | decreasing interaction |
